The results in this text go back to publication PMC3983572.

The target of this test is protein interacting with C kinase 1 (PICK1), recombinant full-length (UniProt Q9EP80). As to the kind of experiment: fluorescence polarisation. Background: Polarisation of emitted light reports the rotation of a fluorescent probe.
Sequence of UniProt Q9EP80 (Q9EP80 whole entry): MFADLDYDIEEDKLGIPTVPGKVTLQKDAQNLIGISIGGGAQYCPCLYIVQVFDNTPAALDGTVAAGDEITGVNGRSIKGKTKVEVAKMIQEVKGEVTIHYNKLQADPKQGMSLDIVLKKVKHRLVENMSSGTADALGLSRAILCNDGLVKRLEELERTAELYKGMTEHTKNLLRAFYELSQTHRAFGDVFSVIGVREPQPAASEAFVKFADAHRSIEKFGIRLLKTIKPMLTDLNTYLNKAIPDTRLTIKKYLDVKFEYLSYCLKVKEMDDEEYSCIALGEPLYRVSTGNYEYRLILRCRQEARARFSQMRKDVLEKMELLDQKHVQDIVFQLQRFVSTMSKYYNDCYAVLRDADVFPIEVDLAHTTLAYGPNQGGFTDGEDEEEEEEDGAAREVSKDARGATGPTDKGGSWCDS

As to unlabeled GluA2 peptide, the Ki was 24 µM.

One may read the Ki as a dissociation constant, usually derived from enzyme kinetics or from competition with a known ligand.
